Experiment [1] has as its target gEgI mutant (338): HSV2 gEgI mutant heterodimer comprising gE and gI ectodomains with insertion of a (HSV2, UniProt P89475 21-416; P06764 21-256). Kind of experiment: ELISA, supernatant. (In general: ELISA stands for enzyme-linked immunosorbent assay.)
Experiment [2] concerns the target gEgI mutant (R320D): HSV2 gEgI mutant heterodimer comprising gE and gI ectodomains with mutation R320D in gE (HSV2, UniProt P89475 21-416; P06764 21-256). Kind of experiment: ELISA, supernatant.
Experiment [3] addresses gEgI mutant (P319D): HSV2 gEgI mutant heterodimer comprising gE and gI ectodomains with mutation P319D in gE (HSV2, UniProt P89475 21-416; P06764 21-256). Kind of experiment: ELISA, supernatant.
The target of experiment [4] is gEgI mutant (P317R): HSV2 gEgI mutant heterodimer comprising gE and gI ectodomains with mutation P317R in gE (HSV2, UniProt P89475 21-416; P06764 21-256). Nature of the experiment: ELISA, supernatant.
The target in experiment [5] is T1, gI WT: HSV2 gI wildtype ectodomain (HSV2, UniProt P06764 21-256). Kind of experiment: ELISA, supernatant.
Experiment [6] concerns the target T2, gEgI WT: HSV2 gEgI heterodimer comprising gE and gI wildtype ectodomains (HSV2, UniProt P89475 21-416; P06764 21-256). Nature of the experiment: ELISA, supernatant.
Experiment [7] has as its target T3, gE WT: HSV2 gE wildtype ectodomain (HSV2, UniProt P89475 21-416). Kind of experiment: ELISA, supernatant.
In experiment [8] the target is T2, gEgI WT: HSV2 gEgI heterodimer …. Nature of the experiment: ELISA, supernatant. This is another data set of the same source.
Experiment [9] deals with T3, gE WT: HSV2 gE wildtype ectodomain. Nature of the experiment: ELISA, supernatant. This is another data set of the same source.
Experiment [10] addresses T1, gI WT: HSV2 gI wildtype ectodomain. Nature of the experiment: ELISA, supernatant. This is another data set of the same source.
Experiment [11] addresses T2, gEgI WT: HSV2 gEgI heterodimer …. Kind of experiment: SPR binning; gEgI captured by mAb 9.
For experiment [12] the target is unchanged. Kind of experiment: SPR binning; gEgI captured by mAb 42.
Experiment [13] has the same target. Nature of the experiment: SPR binning; gEgI captured by mAb 39.
For experiment [14] the target is unchanged. Nature of the experiment: SPR binning; gEgI captured by mAb 19.
Experiment [15] has the same target. Nature of the experiment: SPR binning; gEgI captured by mAb 15.
Experiment [16] shares this target. Nature of the experiment: SPR binning; gEgI captured by mAb 5.
Experiment [17] has the same target. Nature of the experiment: SPR binning; gEgI captured by mAb 45.
The target is the same in experiment [18]. Nature of the experiment: SPR binning; gEgI captured by mAb 20.
For experiment [19] the target is unchanged. Nature of the experiment: SPR binning; gEgI captured by mAb 10.
Experiment [20] shares this target. Kind of experiment: SPR binning; gEgI captured by mAb 40.
Experiment [21] shares this target. Kind of experiment: SPR binning; gEgI captured by mAb 17.
Experiment [22] has the same target. Kind of experiment: SPR binning; gEgI captured by mAb 24.
The target is the same in experiment [23]. Nature of the experiment: SPR binning; gEgI captured by mAb 34.

The values below come from US20230331820A1 (GlaxoSmithKline, published 2023).

Like-named read-outs stand apart in the source and are kept apart here.

B1: mAb clone 48 (antibody, V domains shown)
VH: QVTLKESGPGILQPSQTLSLTCSFSGFSLSTSGMGVSWIRQPSGKGLEWLAHIYWDDDKRYNPSLKSRLTISKDTSSNQVFLKITSVDTADTATYYCARRGFYYRYDGGRRYYYAMDYWGQGTSVTVSS
VL: DILLTQSPAILSVSPGERVSFSCRASQSIGTSIHWYQQGTNGSPRLLIKFASESISGIPSRFSGSGSGTDFTLSINSVESEDIADYYCQQSNSWPLTFGAGTKLELK
Regarding B1, the binding result in [1] is reported as “binds”; in experiment [2], “binds”; in experiment [3], “binds”; in experiment [4], “binds”; in [5], “no binding”; in experiment [6] it was “binds”. In [7], the binding result is reported as “binds”.

B2: mAb clone 47 (antibody, V domains shown)
VH: EVKLVESGGGLVQPGGSLRLSCATSGFTFTDYYMSWVRQPPGKALEWLGFIRNKANGYTTEYSASVKGRFTISRDNSQSILYLQMNTLRAEDSATYYCARDRPGFDYWGQGTTLTVSS
VL: NIVLTQSPASLAVSLGQRATISCRASESVDSFGNSFMHWYQQKPGQPPKLLIYLASNLESGVPARFSGSGSRTDFTLTIDPVEADDAATYYCQQNNEDPPWTFGGGTKLEIK
With B2, the binding result was “no binding” in experiment [1]; “no binding” in experiment [2]; “no binding” in experiment [3]; “binds” in [8]; “no binding” in [4]; “binds” in experiment [9]. In addition, the binding result in [10] is “no binding”.

B3: mAb clone 37 (antibody, V domains shown)
VH: EVQLQQSGPELVKPGASVKISCKASGYTFTDYNMHWVKQSHGKSLEWIGYIYPYNGGTGYNQKFKTKATLTVDNSSSTAYMELRSLTSEDSAVYYCAIPGYYYAMDYWGQGTSVTVSS
VL: DIVLTQSPASLAVSLGQRATISCRASKSVSTSGYSYMHWYQQKPGQPPKLLIYLASNLESGVPARFSGSGSGTDFTLNIHPVEEEDASTYYCHHSRELPRTFGGGTKLEIK
For B3, the binding result in experiment [1] was “binds”; in experiment [2] it was “binds”; in [3] it was “binds”; in [4] it was “binds”; in [6], “binds”; in experiment [10] it was “no binding”. Moreover, the binding result in experiment [7] is “binds”.

B4: mAb clone 41 (antibody, V domains shown)
VH: QVQLQQSGAELVRPGTSVKVSCKASGYAFTNYLIEWVKQRPGQGLEWIGVINPGSGGTNYNEKFKGKATLTADKSSSTAYMQLSSLTSDDSAVYFCARSGLRRDYYAMDYWGQGTSVTVSS
VL: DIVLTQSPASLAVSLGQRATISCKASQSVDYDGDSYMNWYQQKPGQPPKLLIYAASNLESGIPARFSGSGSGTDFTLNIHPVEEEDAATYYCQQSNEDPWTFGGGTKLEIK
As to B4, the binding result in experiment [1] is “binds”; in [2], “binds”; in experiment [3], “binds”; in experiment [4], “binds”; in [9], “no binding”; in experiment [6] it was “binds”. Moreover, the binding result in [10] is on record as “binds”.

B5: mAb clone 40 (antibody, V domains shown)
VH: QIQLVQSGPELKKPGETVKISCKASGYTFTNYGMNWVKQAPGKGLKWMGWINTYTGEPTYADDFKGRFAFSLETSASTAYLQINNLKNEDTATYFCARSLYGYDEGYFDVWGAGTTVTVSS
VL: DIQMTQSPASLSASVGETVTITCRASGNIHNYLAWYQQKQGKSPQLLVYNAKTLADGVPSRFSGSGSGTQYSLKINSLQPEDFGSYYCQHFWSTPYTFGGGTKLEIK
For B5, the RU in [11] was 8.8 RU; in [12], 7.4 RU; in experiment [13], 9 RU; in experiment [14], 6.4 RU; in experiment [15], -0.4 RU; in experiment [16], 9 RU. Moreover, the RU in experiment [17] was determined as 7.3 RU; in experiment [18], 10 RU; in [19], 9.8 RU; in [20], 2.6 RU; in [21], 8.8 RU; in [22], 7.6 RU. For the same molecule, the RU in [23] is 5.2 RU. The binding result is “binds” in experiment [1], “no binding” in experiment [10] and “no binding” in experiment [7].

B6: mAb clone 39 (antibody, V domains shown)
VH: EVKLVESGGGLVQPGGSLKLSCAASGFTFSSYTMSWVRQTPEKRLEWVAYISNGGGSTYYPDTVKGRFTISRDNAKNTLYLQMSSLKSEDTAMYYCARGVSYYGDLYYFDYWGQGTTLTVSS
VL: DVVVTQTPLSLPVSFGDQVSISCRSSQSLANSYGNTYLSWYLHKPGQSPQLLIYGISNRFSGVPDRFSGSGSGTDFTLKISTIKPEDLGMYYCLQGTHQPWTFGGGTKLEIK
On to B6, for which the RU in experiment [11] was -1.5 RU; in experiment [12] it was 0.1 RU; in [13], 1.3 RU; in experiment [14], -7.2 RU; in [15], -4.8 RU; in [16], 0.6 RU. For the same molecule, the RU was -5.4 RU in experiment [17]; 3.1 RU in experiment [18]; 2.3 RU in experiment [19]; -1.2 RU in experiment [20]; -0.6 RU in experiment [21]; -0.9 RU in experiment [22]. In addition, the RU in experiment [23] is -6.4 RU. Further, the binding result in experiment [1] is on record as “binds”; in experiment [10] it was “no binding”; in experiment [7] it was “no binding”.

B7: mAb clone 43 (antibody, V domains shown)
VH: DVKLVESGGGLVKPGGSLKLSCAASGFTFSSYTMSWVRQTPEKRLEWVATISSGGSYTYYPDSVKGRFTISRDNAKNTLYLQMSSLKAEDTAMYYCTRGGYGSSFENYFDYWGQGTTLTVSS
VL: DIVMSQSPSSLAVSAGEKVTMSCKSSQSLLNSRTRKNYLAWYQQKPGQSPKLLIYWASTRESGVPDRFTGSGSGTDFTLTISSVQAEDLAVYSCKQSYNLPLTFGAGTKLELK
notes: also called GEGI/43IIa
For B7, the binding result in experiment [1], in experiment [2], in experiment [3], in [8], in experiment [4] and in experiment [9] was “binds” each time. Further, the binding result in [10] is recorded as “no binding”.
